This passage reports Km results from PMC3701795, “Heterologous expression and characterization of a malathion-hydrolyzing carboxylesterase from a thermophilic bacterium, Alicyclobacillus tengchongensis” (Biotechnology Letters, 2013).

This data set has as its system CC(=O)Oc1ccc2ccccc2c1. The data set is described as follows: purified protein. Conditions: pH 7 potassium phosphate, 60 °C, 0.1-0.95 mM substrate.

Consider D1CarE5 (Alicyclobacillus sp. D-1), for which the Km was 1000 µM.
